Experimental findings from doi:10.1101/521351 (bioRxiv, 2019) are described below.

Data set [1] deals with ICA512 RESP18HD (regulated endocrine-specific protein 18 homology domain of ICA512, residues 35-131) (human) (UniProt Q16849). The data set is described as follows: co-sedimentation.
The data set “light scattering” concerns the molecule itself. The data set is described as follows: light scattering.

Regarding Human insulin (ligand), the stoichiometry N in data set [1] (scale: mole of insulin per mole of ICA512 RESP18HD) is 0.4; in data set [1] (scale: moles of insulin per mole of ICA512 RESP18HD), 2.8.

B1: ICA512 RESP18HD (regulated endocrine-specific protein 18 homology domain of ICA512, residues 35-131) (domain or fragment, human, UniProt Q16849 35-131, looked up)
chain: VSAHGCLFDRRLCSHLEVCIQDGLFGQCQVGVGQARPLLQVTSPVLQRLQGVLRQLMSQGLSWHDDLTQYVISQEMERIPRLRPPEPRPRDRSGLAP
In the case of B1, in “light scattering”, the binding result is “binds”.

As a reminder, the stoichiometry N is a count of units in the complex or per binding partner.
